Laboratory results as given in IntAct's records for PubMed 28164238.

B1: T-box transcription factor TBX5 (Mus musculus), P70326 (parent)
chain: MADTDEGFGLARTPLEPDSKDRSCDSKPESALGAPSKSPSSPQAAFTQQGMEGIKVFLHERELWLKFHEVGTEMIITKAGRRMFPSYKVKVTGLNPKTKYILLMDIVPADDHRYKFADNKWSVTGKAEPAMPGRLYVHPDSPATGAHWMRQLVSFQKLKLTNNHLDPFGHIILNSMHKYQPRLHIVKADENNGFGSKNTAFCTHVFPETAFIAVTSYQNHKITQLKIENNPFAKGFRGSDDLELHRMSRMQSKEYPVVPRSTVRHKVTSNHSPFSSETRALSTSSNLGSQYQCENGVSGPSQDLLPPPNPYPLAQEHSQIYHCTKRKDEECSSTEHPYKKPYMETSPSEEDTFYRSGYPQQQGLSTSYRTESAQRQACMYASSAPPSEPVPSLEDISCNTWPSMPSYSSCTVTTVQPMDRLPYQHFSAHFTSGPLVPRLAGMANHGSPQLGEGMFQHQTSVAHQPVVRQCGPQTGLQSPGGLQPPEFLYTHGVPRTLSPHQYHSVHGVGMVPEWSENS

Key:
[1] = variants of: B1; settings: with klf13_mouse Klf13, Q9JJZ6
klf13_mouse Klf13, Q9JJZ6, sequence (Q9JJZ6 whole entry): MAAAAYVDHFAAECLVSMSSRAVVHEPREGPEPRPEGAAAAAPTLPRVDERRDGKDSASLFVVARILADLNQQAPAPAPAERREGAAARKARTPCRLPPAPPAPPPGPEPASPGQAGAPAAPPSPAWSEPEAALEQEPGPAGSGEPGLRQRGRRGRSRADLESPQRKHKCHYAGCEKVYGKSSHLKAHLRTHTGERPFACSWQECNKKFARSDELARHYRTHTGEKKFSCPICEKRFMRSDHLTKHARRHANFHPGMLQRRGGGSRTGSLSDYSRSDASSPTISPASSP

[2] = variants of: B1; settings: with nkx25_mouse Nkx2-5, P42582
nkx25_mouse Nkx2-5, P42582, sequence (P42582 whole entry): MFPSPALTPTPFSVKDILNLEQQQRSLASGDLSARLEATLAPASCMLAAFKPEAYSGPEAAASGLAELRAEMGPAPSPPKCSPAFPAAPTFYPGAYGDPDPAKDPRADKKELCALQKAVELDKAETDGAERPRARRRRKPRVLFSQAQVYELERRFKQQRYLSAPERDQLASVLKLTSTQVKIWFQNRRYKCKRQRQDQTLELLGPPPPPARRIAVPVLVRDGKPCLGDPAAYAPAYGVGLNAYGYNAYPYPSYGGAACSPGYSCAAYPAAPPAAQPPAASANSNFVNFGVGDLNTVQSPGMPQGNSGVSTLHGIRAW

Variant | effect of a mutation on the interaction [1] | effect of a mutation on the interaction [2]
R134C | with no effect | with no effect
L102P | decreasing interaction strength | decreasing interaction strength
P96L | with no effect | decreasing interaction strength
Y100C | decreasing interaction strength | decreasing interaction strength
W121G | decreasing interaction strength | with no effect
T144I | decreasing interaction strength | decreasing interaction strength

Other lines, results leading:

effect of a mutation on the interaction [1] | effect of a mutation on the interaction [2] | Variant
decreasing interaction strength | decreasing interaction strength | R237Q
decreasing interaction strength | decreasing interaction strength | T223M
with no effect | decreasing interaction strength | G195A
decreasing interaction strength | decreasing interaction strength | G169R
